Reference: the supplement of paper PMC7877785
± gives the uncertainty stated by the source.

Test: self-splicing fitness, log relative to wild type (ln ratio); higher = more splicing; Tetrahymena group I intron in knt gene, E. coli kanamycin selection, DiMSum; sequences stand for … in CUCUCU…GGAGGGAAAAGUUAUCAGGCAUGCACCUGGUAGCUAGUCUUUAAACCAAUAGAUUGCAUCGGUUUAAAAGGCAAGACCGUCAAAUUGCGGGAAAGGGGUCAACAGCCGUUCAGUACCAAGUCUCAGGGGAAACUUUGAGAUGGCCUUGCAAAGGGUAUGGUAAUAAGCUGACGGACAUGGUCCUAACCACGCAGCCAAGUCCUAAGUCAACAGAUCUUCUGUUGAUAUGGAUGCAGUUCACAGACUAAAUGUCGGUCGGGGAAGAUGUAUUCUUCUCAUAAGAUAUAGUCGGACCUCUCCUUAAUGGGAGCUAGCGGAUGAAGUGAUGCAACACUGGAGCCGCUGGGAACUAAUUUGUAUGCGAAAGUAUAUUGAUUAGUUUUGGAGUACUCGUGGUCG
How it was run: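 A randomised library covering all eight P1ex-region intron nucleotides was built with the intron in the knt kanamycin-resistance gene on pET-22b(+) and held in E. coli BL21(DE3). Cells were grown overnight at 37°C or 30°C on LB agar, with or without 25 μg/mL kanamycin, plus 100 μg/mL carbenicillin, 50 μM IPTG and 0.2% rhamnose, and pooled colonies were amplicon-sequenced on an Illumina HiSeq 2500. DiMSum fitness is the error-weighted combination of wild-type-normalised replicate fold changes, kanamycin versus none.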

| Sequence | self-splicing fitness (ln) (30 °C) | self-splicing fitness (ln) (37 °C) |
| --- | --- | --- |
| ACUCAGCAAUAUUACGUAUG | -3.11 ± 0.24 | -1.35 ± 0.16 |
| ACUCAGCAAUAUUACGUCCC | -0.969 ± 0.13 | -0.71 ± 0.16 |
| ACUCAGCAAUAUUACGUCCG | -2.16 ± 0.14 | -1.21 ± 0.15 |
| ACUCAGCAAUAUUACGUGAU | -1 ± 0.064 | -0.627 ± 0.078 |
| ACUCAGCAAUAUUACGUGCG | -0.485 ± 0.063 | -0.526 ± 0.078 |
| ACUCAGCAAUAUUACGUUAG | -2.98 ± 0.13 | -0.675 ± 0.11 |
| ACUGAGCAAUAUUACGAAGU | -3.93 ± 0.3 | -3.03 ± 0.31 |
| ACUGAGCAAUAUUACGAGGA | -2.63 ± 0.23 | -1.83 ± 0.17 |
| ACUGAGCAAUAUUACGAUCA | -2.89 ± 0.43 | -2.9 ± 0.34 |
| ACUGAGCAAUAUUACGAUCG | -1.65 ± 0.15 | -1.99 ± 0.21 |
| ACUGAGCAAUAUUACGAUCU | -1.28 ± 0.12 | -0.653 ± 0.1 |
| ACUGAGCAAUAUUACGAUUG | – | -3.25 ± 0.37 |
| ACUGAGCAAUAUUACGCAAU | -2.79 ± 0.28 | -2.03 ± 0.27 |
| ACUGAGCAAUAUUACGCAUC | -2.22 ± 0.24 | -2.08 ± 0.24 |
| ACUGAGCAAUAUUACGCCCG | -2.15 ± 0.25 | -0.509 ± 0.22 |
| ACUGAGCAAUAUUACGCGAC | -2.51 ± 0.43 | -1.46 ± 0.29 |
| ACUGAGCAAUAUUACGCUGU | -3.42 ± 0.28 | -1.7 ± 0.25 |
| ACUGAGCAAUAUUACGGACG | -2.2 ± 0.13 | -1.9 ± 0.2 |
| ACUGAGCAAUAUUACGGCGU | -1.07 ± 0.079 | 0.0319 ± 0.097 |
| ACUGAGCAAUAUUACGGGCA | -2.07 ± 0.14 | -1.08 ± 0.14 |
| ACUGAGCAAUAUUACGUAGU | -3.48 ± 0.19 | -2.41 ± 0.25 |
| ACUGAGCAAUAUUACGUCCC | -3.06 ± 0.39 | – |
| ACUGAGCAAUAUUACGUCGG | -2.82 ± 0.16 | -2.47 ± 0.21 |
| ACUGAGCAAUAUUACGUGAU | -3.6 ± 0.14 | -1.76 ± 0.097 |
| ACUUAGCAAUAUUACGAAAG | -2.69 ± 0.19 | -0.697 ± 0.17 |

| Sequence | self-splicing fitness (ln) (30 °C) | self-splicing fitness (ln) (37 °C) |
| --- | --- | --- |
| ACUUAGCAAUAUUACGAAGU | -3.91 ± 0.22 | -1.61 ± 0.19 |
| ACUUAGCAAUAUUACGAAUG | -2.24 ± 0.11 | -1.13 ± 0.12 |
| ACUUAGCAAUAUUACGACGA | -0.777 ± 0.089 | -0.322 ± 0.088 |
| ACUUAGCAAUAUUACGAGAA | -2.06 ± 0.29 | -2.07 ± 0.23 |
| ACUUAGCAAUAUUACGAGGC | -3.25 ± 0.5 | – |
| ACUUAGCAAUAUUACGAUCA | -1.45 ± 0.14 | -0.47 ± 0.13 |
| ACUUAGCAAUAUUACGCACG | -1.55 ± 0.1 | -0.683 ± 0.13 |
| ACUUAGCAAUAUUACGCAUC | -2.69 ± 0.19 | -1.64 ± 0.2 |
| ACUUAGCAAUAUUACGCCAG | -2.16 ± 0.15 | -0.941 ± 0.17 |
| ACUUAGCAAUAUUACGCGGU | -3.26 ± 0.41 | -1.84 ± 0.26 |
| ACUUAGCAAUAUUACGCUGC | -3.82 ± 0.32 | -2.36 ± 0.22 |
| ACUUAGCAAUAUUACGCUGU | -3.85 ± 0.2 | -2.19 ± 0.17 |
| ACUUAGCAAUAUUACGGAUG | -1.73 ± 0.13 | -1.53 ± 0.2 |
| ACUUAGCAAUAUUACGGGCA | -1.04 ± 0.091 | 0.0835 ± 0.096 |
| ACUUAGCAAUAUUACGGUAU | -3.18 ± 0.12 | -2.5 ± 0.13 |
| ACUUAGCAAUAUUACGGUGU | -2.79 ± 0.11 | -1.64 ± 0.097 |
| ACUUAGCAAUAUUACGUACU | -0.497 ± 0.094 | -0.384 ± 0.1 |
| ACUUAGCAAUAUUACGUAGG | -1.25 ± 0.079 | -1.12 ± 0.11 |
| ACUUAGCAAUAUUACGUAUC | -3.56 ± 0.22 | -2.37 ± 0.24 |
| ACUUAGCAAUAUUACGUCCU | -0.527 ± 0.085 | -0.132 ± 0.13 |
| ACUUAGCAAUAUUACGUUAG | -2.09 ± 0.09 | -1.5 ± 0.12 |
| AGAAAGCAAUAUUACGAAUA | -2.51 ± 0.17 | -0.949 ± 0.14 |
| AGAAAGCAAUAUUACGACGC | -0.72 ± 0.11 | -0.219 ± 0.14 |
| AGAAAGCAAUAUUACGAGAC | -2.65 ± 0.3 | -2.13 ± 0.47 |
| AGAAAGCAAUAUUACGAUAC | -1.78 ± 0.14 | -1.54 ± 0.19 |

| Sequence | self-splicing fitness (ln) (30 °C) | self-splicing fitness (ln) (37 °C) |
| --- | --- | --- |
| AGAAAGCAAUAUUACGAUCC | -0.604 ± 0.07 | 0.0529 ± 0.11 |
| AGAAAGCAAUAUUACGAUGU | -0.998 ± 0.063 | -0.229 ± 0.083 |
| AGAAAGCAAUAUUACGCAAU | -2.18 ± 0.072 | -0.965 ± 0.075 |
| AGAAAGCAAUAUUACGCCAC | – | -2.07 ± 0.41 |
| AGAAAGCAAUAUUACGCUGA | -3.08 ± 0.21 | -0.267 ± 0.15 |
| AGAAAGCAAUAUUACGGCGU | 0.239 ± 0.073 | 0.133 ± 0.091 |
| AGAAAGCAAUAUUACGGCUC | -1.28 ± 0.091 | -0.338 ± 0.12 |
| AGAAAGCAAUAUUACGGGAA | -2.72 ± 0.13 | -1.73 ± 0.12 |
| AGAAAGCAAUAUUACGGGGC | -4.36 ± 0.3 | -2.05 ± 0.21 |
| AGAAAGCAAUAUUACGGUAG | -3.84 ± 0.22 | -2.37 ± 0.21 |
| AGAAAGCAAUAUUACGUCGC | -2.69 ± 0.16 | -1.76 ± 0.15 |
| AGAAAGCAAUAUUACGUCUC | -2.56 ± 0.43 | – |
| AGAAAGCAAUAUUACGUGUG | -2.13 ± 0.081 | -1.78 ± 0.095 |
| AGACAGCAAUAUUACGAAUG | -2.45 ± 0.11 | -1.86 ± 0.12 |
| AGACAGCAAUAUUACGAGAA | -2.15 ± 0.37 | -2.43 ± 0.31 |
| AGACAGCAAUAUUACGAGCA | -1.46 ± 0.12 | -0.648 ± 0.13 |
| AGACAGCAAUAUUACGAUUA | -1.15 ± 0.062 | -0.971 ± 0.086 |
| AGACAGCAAUAUUACGAUUG | -2.94 ± 0.16 | -3.15 ± 0.28 |
| AGACAGCAAUAUUACGCCAU | -3.25 ± 0.26 | -1.78 ± 0.17 |
| AGACAGCAAUAUUACGCCUG | -1.88 ± 0.12 | 0.171 ± 0.11 |
| AGACAGCAAUAUUACGCUCU | -2.08 ± 0.18 | -0.598 ± 0.15 |
| AGACAGCAAUAUUACGCUUG | -2.71 ± 0.13 | -1 ± 0.12 |
| AGACAGCAAUAUUACGGGGC | -3.97 ± 0.23 | -1.69 ± 0.17 |
| AGACAGCAAUAUUACGGUGG | -3 ± 0.12 | -1.89 ± 0.17 |
| AGACAGCAAUAUUACGGUGU | -3.34 ± 0.12 | -2.59 ± 0.12 |

| Sequence | self-splicing fitness (ln) (30 °C) | self-splicing fitness (ln) (37 °C) |
| --- | --- | --- |
| AGACAGCAAUAUUACGUAAC | -3.82 ± 0.15 | -1.69 ± 0.15 |
| AGACAGCAAUAUUACGUCAG | -2.3 ± 0.092 | -0.807 ± 0.11 |
| AGACAGCAAUAUUACGUCAU | -2.86 ± 0.13 | -2.17 ± 0.15 |
| AGACAGCAAUAUUACGUCGA | -1.01 ± 0.089 | -1.07 ± 0.12 |
| AGACAGCAAUAUUACGUCUG | -1.6 ± 0.076 | -0.662 ± 0.08 |
| AGACAGCAAUAUUACGUGCC | -0.679 ± 0.12 | -0.815 ± 0.17 |
| AGACAGCAAUAUUACGUGCU | -3.14 ± 0.12 | -1.56 ± 0.085 |
| AGACAGCAAUAUUACGUGGG | -3.37 ± 0.13 | -2.37 ± 0.13 |
| AGAGAGCAAUAUUACGAAUA | – | -0.719 ± 0.49 |
| AGAGAGCAAUAUUACGACAA | – | -2.46 ± 0.48 |
| AGAGAGCAAUAUUACGACCA | – | -0.796 ± 0.48 |
| AGAGAGCAAUAUUACGACGG | -3.4 ± 0.28 | – |
| AGAGAGCAAUAUUACGAGCG | -2.63 ± 0.3 | – |
| AGAGAGCAAUAUUACGAUGA | -3.27 ± 0.24 | -2.37 ± 0.23 |
| AGAGAGCAAUAUUACGAUUA | -2.43 ± 0.25 | -2.57 ± 0.32 |
| AGAGAGCAAUAUUACGCACA | -3.27 ± 0.48 | – |
| AGAGAGCAAUAUUACGCCCA | – | -0.88 ± 0.36 |
| AGAGAGCAAUAUUACGCCGC | -3.9 ± 0.3 | -1.49 ± 0.25 |
| AGAGAGCAAUAUUACGCGGA | – | -2.21 ± 0.34 |
| AGAGAGCAAUAUUACGGACC | -2.79 ± 0.3 | -1.05 ± 0.33 |
| AGAGAGCAAUAUUACGGGGU | – | -2.65 ± 0.26 |
| AGAGAGCAAUAUUACGGGUA | -4.04 ± 0.42 | -1.47 ± 0.19 |
| AGAGAGCAAUAUUACGGUAC | – | -2.12 ± 0.27 |
| AGAGAGCAAUAUUACGGUCA | -2.48 ± 0.49 | -1.97 ± 0.24 |
| AGAGAGCAAUAUUACGGUUC | -4.09 ± 0.37 | -2.11 ± 0.29 |
